These results are taken from patent US20190161555A1 (ALLIGATOR BIOSCIENCE, published 2019).

For orientation: Kd means the free concentration of one partner at which half of the binding sites on the other are occupied at equilibrium, for simple one-to-one binding. High values mean lower affinity, low ones higher affinity. Broadly, the koff is the rate constant with which the complex falls apart. Read a low koff as a long-lived complex. Broadly, the kon is a measure of how fast the partners come together. Low values mean slow association, high ones fast association. What is called EC50 (read off the curve) is the concentration at which the effect is half-maximal. Read a low EC50 (read off the curve) as a more potent agent. As a reminder, the EC50 is the concentration needed to bring the measured effect to its halfway point.

Changes are numbered by the printed parent chain.

The target in assay [1] is T1, Human OX40 (R&D Systems, 3388-OX) (human, UniProt P43489 29-216).
T1 construct: bought; also called OX40-Fc; Human OX40 (R&D systems, #3358_OX)
T1 sequence (looked up): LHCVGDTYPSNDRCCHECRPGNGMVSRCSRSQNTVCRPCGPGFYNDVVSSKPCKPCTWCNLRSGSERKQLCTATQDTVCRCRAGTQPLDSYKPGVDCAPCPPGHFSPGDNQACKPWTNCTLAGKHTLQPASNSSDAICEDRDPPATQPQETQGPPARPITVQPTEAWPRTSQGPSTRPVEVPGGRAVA
The assay is described as follows: SPR Biacore, human OX40 amine-coupled on CM5, antibody injected, 1:1 Langmuir. As for the experimental part:
Human OX40 (R&D systems, #3358_OX) was immobilized to the Biacore™ sensor chip, CM5, using conventional amine coupling. The tested antibodies and controls (serially diluted 1/3 or 1/2 100-2 nM) were analyzed for binding in HBS-P (GE, #BR-1003-68) at a flow rate of […]. The association was followed for 3 minutes and the dissociation for 20 minutes. Regeneration was performed twice using 50 mM NaOH for 60 seconds. The kinetic parameters and the affinity constants were calculated using 1:1 Langmuir model with drifting baseline. […] The kinetic parameters and the affinity constants were calculated using BIAevaluation 4.1 software.

Assay [2] deals with T2, Construct 84: full length OX40 (human, UniProt P43489 29-277).
T2 construct: whole, on cells
T2 sequence (looked up): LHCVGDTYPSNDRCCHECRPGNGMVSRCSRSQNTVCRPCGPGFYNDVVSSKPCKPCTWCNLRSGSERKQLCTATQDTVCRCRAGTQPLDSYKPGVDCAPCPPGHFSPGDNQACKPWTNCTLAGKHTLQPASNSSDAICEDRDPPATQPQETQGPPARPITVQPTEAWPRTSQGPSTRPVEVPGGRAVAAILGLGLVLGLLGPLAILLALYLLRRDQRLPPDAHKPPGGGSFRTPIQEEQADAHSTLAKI
The assay is described as follows: flow cytometry, 293-F cells transfected with the construct. As for the experimental part: The transfected cells were incubated with human OX40 antibodies, human OX40L (hOX40L, RnD Systems), mouse OX40L (mOX40L, RnD Systems) and controls for 30 min 4° C. and then detected with a-huIgG-PE (Jackson Immunoresearch) 30 min 4° C. Cells were analyzed with FACS Verse (BD Biosciences). Binding to the different chimeric constructs were calculated as relative (mean fluorescence intensity) MFI compared to the binding of the isotype control.
On the technique in general: In flow cytometry, cells or beads pass a laser one at a time.

The target of the next assay is CD137 (R&D Systems) (UniProt Q07011 24-186, limits assumed). Kind of assay: ELISA, CD137 coated. As for the experimental part:
(§1) ELISA plates were coated with human OX40 (R&D Systems, 3388-OX), CD40 (Ancell), or CD137 (R&D Systems) at 0.1 or 0.5 μg/ml. The ELISA plates were washed with PBST and then blocked with PBST+2% BSA for 1 h at room temperature and then washed again with PBST. The antibodies were added in dilution series to the ELISA plates for 1 h at room temperature and then washed with PBST. Binding was detected using goat anti human kappa light chain HRP, incubated for 1 h at room temperature. SuperSignal Pico Luminescent was used as substrate and luminescence was measured using Fluostar Optima.
Background: ELISA stands for enzyme-linked immunosorbent assay.

In assay [3] the target is T3, human OX40 overexpressed on CHO cells (human, UniProt P43489 29-214; P25942 194-277).
T3 construct: extracellular domain;domain: transmembrane and intracellular part; also called hOX40; huOX40 (CHO)
T3 sequence (looked up): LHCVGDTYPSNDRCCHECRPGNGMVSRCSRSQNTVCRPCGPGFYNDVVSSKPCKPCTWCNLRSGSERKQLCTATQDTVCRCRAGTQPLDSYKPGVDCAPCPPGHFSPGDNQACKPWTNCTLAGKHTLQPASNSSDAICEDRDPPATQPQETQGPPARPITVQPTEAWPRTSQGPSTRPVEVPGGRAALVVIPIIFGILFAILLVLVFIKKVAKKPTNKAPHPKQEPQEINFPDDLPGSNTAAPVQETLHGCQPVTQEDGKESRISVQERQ
Kind of assay: flow cytometry on CHO cells overexpressing human OX40, anti-huIgG-PE detection, MFI. How it is done:
The extracellular part of human OX40 was fused to the transmembrane and intracellular part of hCD40 and cloned into pcDNA3.0. The vector was subsequently stably transfected into CHO cells. […] For the assay, the transfected cells were incubated with the test antibodies and controls for 30 min at 4° C. and then detected with a-huIgG-PE (Jackson Immunoresearch) 30 min 4° C. Cells were analyzed by flow cytometry with FACS Verse (BD Biosciences).

Another assay deals with CD40 (Ancell) (UniProt P25942 21-193, limits assumed). Kind of assay: ELISA, CD40 coated. How it is done:
as §1

The target in a further assay is T4, murine OX40 (murine, UniProt P47741 20-211, limits assumed).
T4 construct: also called mouse OX40
T4 sequence (looked up): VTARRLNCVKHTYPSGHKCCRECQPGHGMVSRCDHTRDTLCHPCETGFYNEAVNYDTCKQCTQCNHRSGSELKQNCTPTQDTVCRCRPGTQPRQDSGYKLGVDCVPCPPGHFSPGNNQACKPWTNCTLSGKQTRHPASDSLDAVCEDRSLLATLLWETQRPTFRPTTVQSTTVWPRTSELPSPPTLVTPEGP
The assay is described as follows: ELISA.

Assay [4] addresses T1, Human OX40 (R&D Systems, 3388-OX). The assay is described as follows: ELISA, plates coated with human OX40, IgG. As for the experimental part: as §1
Assay [5] deals with Macaca mulatta OX40 on HEK cells (Macaca mulatta; human). The assay is described as follows: flow cytometry, macOX40-HEK cells; ends of the 95% confidence interval. How it is done:
For the assay, the transfected cells were incubated with the test antibodies and controls for 30 min at 4° C. and then detected with a-huIgG-PE (Jackson Immunoresearch) 30 min 4° C. Cells were analyzed by flow cytometry with FACS Verse (BD Biosciences).

In another assay the target is T5, 5T4-Fc (human, UniProt Q13641 32-355, limits assumed).
T5 construct: obtained from Peter L. Stern, University of Manchester; also called h5T4-Fc; recombinant 5T4
T5 sequence (looked up): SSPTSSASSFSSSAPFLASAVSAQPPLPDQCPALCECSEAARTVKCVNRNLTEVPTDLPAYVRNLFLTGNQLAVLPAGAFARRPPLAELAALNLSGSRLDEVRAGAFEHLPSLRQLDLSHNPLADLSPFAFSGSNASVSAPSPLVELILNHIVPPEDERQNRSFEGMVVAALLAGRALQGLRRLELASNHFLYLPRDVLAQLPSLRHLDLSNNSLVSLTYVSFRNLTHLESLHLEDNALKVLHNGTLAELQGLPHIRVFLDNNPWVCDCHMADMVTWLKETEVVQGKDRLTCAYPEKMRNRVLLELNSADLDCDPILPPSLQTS
The assay is described as follows: dual ELISA: OX40-Fc coated, detection with biotinylated 5T4-Fc and streptavidin-HRP, luminescence. As for the experimental part: A dual ELISA was used to detect simultaneous binding of the two targets by the bispecific antibodies. ELISA plates were coated with OX40-Fc (R&D systems, #3388-OX, 0.5 μg/ml) over night at 4° C. followed by blocking with PBST+2% bovine serum albumin (BSA) for 1 h at room temperature (RT). […] Biotinylated 5T4-Fc (0.5 μg/ml), followed by HRP-labelled streptavidin (Pierce #21126) were used for detection. Super signal ELISA Pico Chemiluminescent Substrate (Thermo Scientific, #37069) was used as substrate and luminescence was measured using FLUOstar Optima.

CD137 (R&D Systems), sequence (Q07011 24-186 limits assumed): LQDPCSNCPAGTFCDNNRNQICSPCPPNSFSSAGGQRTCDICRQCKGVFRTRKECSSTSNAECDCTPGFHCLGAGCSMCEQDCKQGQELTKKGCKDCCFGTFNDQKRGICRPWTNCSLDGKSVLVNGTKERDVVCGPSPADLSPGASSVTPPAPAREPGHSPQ
CD40 (Ancell), sequence (P25942 21-193 limits assumed): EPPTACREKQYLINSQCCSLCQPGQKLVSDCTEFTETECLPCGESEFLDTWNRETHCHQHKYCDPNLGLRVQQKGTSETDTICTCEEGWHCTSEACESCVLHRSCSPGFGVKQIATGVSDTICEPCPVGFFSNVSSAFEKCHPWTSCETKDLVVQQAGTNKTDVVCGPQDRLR

B1: 1524/1525 (antibody, V domains shown)
VH: EVQLLESGGGLVQPGGSLRLSCAASGFTFGSYYMGWVRQAPGKGLEWVSSIGSYYGYTYYADSVKGRFTISRDNSKNTLYLQMNSLRAEDTAVYYCARHDYGALDYWGQGTLVTVSS
VL: DIQMTQSPSSLSASVGDRVTITCRASQSISSYLNWYQQKPGKAPKLLIYAASSLQSGVPSRFSGSGSGTDFTLTISSLQPEDFATYYCQQYGPSGLFTFGQGTKLEIK
notes: OX40 antibody, tested as IgG
In assay [1], B1 had a Kd of 811 pM, a koff of 0.00139 s⁻¹ and an on-rate (kon) of 1.71e+06 M⁻¹ s⁻¹. Moreover, the “relative MFI” value in assay [2] was found to be 31.4 fold over isotype control. For the same molecule, in the assay with CD137 (R&D Systems), the binding result is “no binding”. Besides, the “EC50 (read off the curve)” value in [3] is around 0.05 µg/mL. Besides, the binding result with CD40 (Ancell) is on record as “no binding”. Besides, in the assay with murine OX40, the binding result is listed as “no binding”. In addition, in assay [4], the 50% effective concentration (EC50) is below 1000 pM.

B2: 1166/1167 (antibody, V domains shown)
VH: EVQLLESGGGLVQPGGSLRLSCAASGFTFGGYYMSWVRQAPGKGLEWVSAISGSGGSTYYADSVKGRFTISRDNSKNTLYLQMNSLRAEDTAVYYCARYDYASMDYWGQGTLVTVSS
VL: B1 VL with G92Y, P93W, S94Y, F97S
B2 registered an EC50 in [5] of 0.16 to 0.242 µg/mL. Further, the binding result was “no binding” in the assay with CD137 (R&D Systems), “no binding” with CD40 (Ancell), “no binding” in the assay with murine OX40 and “no binding (tested: about 80 nM (log[conc ab] 1.9))” in the assay with 5T4-Fc.

B3: 1164/1135 (antibody, V domains shown)
VH: EVQLLESGGGLVQPGGSLRLSCAASGFTFYGSSMYWVRQAPGKGLEWVSGIYSSGGYTSYADSVKGRFTISRDNSKNTLYLQMNSLRAEDTAVYYCARGVPHGYFDYWGQGTLVTVSS
VL: not shown
notes: OX40 antibody, tested as IgG
Take B3: the equilibrium dissociation constant (Kd) in [1] was 308 pM. This molecule displayed a koff in assay [1] of 7.73e-05 s⁻¹. Besides, the kon in assay [1] came to 251000 M⁻¹ s⁻¹. In addition, the “relative MFI” value in [2] amounted to 27.5 fold over isotype control. The binding result with CD137 (R&D Systems), with CD40 (Ancell) and in the assay with murine OX40 was “no binding” in each case. For the same molecule, the 50% effective concentration (EC50 (read off the curve)) in assay [3] is around 0.01 µg/mL. This molecule also displayed a 50% effective concentration (EC50) in assay [4] below 1000 pM.
